# Values of other authors in article PMC6716794.
# pKd: −log10 of the molar value.
# Experiments:
# thrombin ABE I = thrombin ABE I (UniProt P00734); experiment: NMR
# thrombin ABE II = thrombin ABE II (UniProt P00734)
# Thrombin (Homo sapiens) = Thrombin (Homo sapiens) (UniProt P00734)
# Chain of PAR3GEL (O00254 39-374): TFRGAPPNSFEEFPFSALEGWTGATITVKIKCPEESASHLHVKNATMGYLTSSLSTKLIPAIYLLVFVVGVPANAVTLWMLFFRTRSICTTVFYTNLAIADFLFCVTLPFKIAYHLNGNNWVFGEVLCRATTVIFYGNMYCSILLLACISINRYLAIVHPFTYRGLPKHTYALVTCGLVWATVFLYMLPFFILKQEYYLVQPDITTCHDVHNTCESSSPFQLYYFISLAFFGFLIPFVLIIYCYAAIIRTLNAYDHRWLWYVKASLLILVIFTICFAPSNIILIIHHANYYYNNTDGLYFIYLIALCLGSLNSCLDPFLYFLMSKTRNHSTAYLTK
pKd (thrombin ABE I),pKd (thrombin ABE II),pKd (Thrombin (Homo sapiens)),Substance
4.33,–,–,PAR3GEL (from UniProt O00254)
–,8.23,8.23,GpIbα 269-286 (from UniProt P07359)
